# Source: IntAct's records for PubMed 31515488
# B1: Breast cancer metastasis-suppressor 1 (Homo sapiens), Q9HCU9 (parent)
# chain: MPVQPPSKDTEEMEAEGDSAAEMNGEEEESEEERSGSQTESEEESSEMDDEDYERRRSECVSEMLDLEKQFSELKEKLFRERLSQLRLRLEEVGAERAPEYTEPLGGLQRSLKIRIQVAGIYKGFCLDVIRNKYECELQGAKQHLESEKLLLYDTLQGELQERIQRLEEDRQSLDLSSEWWDDKLHARGSSRSWDSLPPSKRKKAPLVSGPYIVYMLQEIDILEDWTAIKKARAAVSPQKRKSDGP
# partner: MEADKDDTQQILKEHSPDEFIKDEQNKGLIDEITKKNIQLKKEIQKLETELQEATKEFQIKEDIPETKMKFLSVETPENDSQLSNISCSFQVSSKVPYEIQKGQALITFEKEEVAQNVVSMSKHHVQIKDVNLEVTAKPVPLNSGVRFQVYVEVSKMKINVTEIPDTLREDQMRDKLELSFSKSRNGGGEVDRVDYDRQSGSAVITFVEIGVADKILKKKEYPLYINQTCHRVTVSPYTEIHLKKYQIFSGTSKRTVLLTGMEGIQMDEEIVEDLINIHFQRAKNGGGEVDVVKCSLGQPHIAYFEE
# B2: Protein LDOC1 (Homo sapiens), O95751 (parent)
# chain: MVDELVLLLHALLMRHRALSIENSQLMEQLRLLVCERASLLRQVRPPSCPVPFPETFNGESSRLPEFIVQTASYMLVNENRFCNDAMKVAFLISLLTGEAEEWVVPYIEMDSPILGDYRAFLDEMKQCFGWDDDEDDDDEEEEDDY
# partner: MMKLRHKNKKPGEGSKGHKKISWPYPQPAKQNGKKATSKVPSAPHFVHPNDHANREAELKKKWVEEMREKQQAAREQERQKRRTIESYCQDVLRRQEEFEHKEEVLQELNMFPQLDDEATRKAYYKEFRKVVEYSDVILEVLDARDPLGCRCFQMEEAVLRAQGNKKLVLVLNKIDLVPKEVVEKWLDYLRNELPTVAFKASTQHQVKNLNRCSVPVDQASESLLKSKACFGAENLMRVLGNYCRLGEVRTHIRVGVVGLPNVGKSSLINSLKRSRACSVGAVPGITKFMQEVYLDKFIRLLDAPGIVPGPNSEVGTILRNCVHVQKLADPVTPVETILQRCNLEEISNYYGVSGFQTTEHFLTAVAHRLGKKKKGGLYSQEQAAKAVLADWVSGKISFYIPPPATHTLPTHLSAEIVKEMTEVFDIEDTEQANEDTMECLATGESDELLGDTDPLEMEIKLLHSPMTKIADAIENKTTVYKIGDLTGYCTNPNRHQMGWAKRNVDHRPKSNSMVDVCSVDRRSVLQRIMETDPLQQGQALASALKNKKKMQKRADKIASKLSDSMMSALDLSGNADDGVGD
# B3: Protein BANP (Homo sapiens), Q8N9N5 (parent)
# chain: MMSEHDLADVVQIAVEDLSPDHPVVLENHVVTDEDEPALKRQRLEINCQDPSIKTICLRLDSIEAKLQALEATCKSLEEKLDLVTNKQHSPIQVPMVAGSPLGATQTCNKVRCVVPQTTVILNNDRQNAIVAKMEDPLSNRAPDSLENVISNAVPGRRQNTIVVKVPGQEDSHHEDGESGSEASDSVSSCGQAGSQSIGSNVTLITLNSEEDYPNGTWLGDENNPEMRVRCAIIPSDMLHISTNCRTAEKMALTLLDYLFHREVQAVSNLSGQGKHGKKQLDPLTIYGIRCHLFYKFGITESDWYRIKQSIDSKCRTAWRRKQRGQSLAVKSFSRRTPNSSSYCPSEPMMSTPPPASELPQPQPQPQALHYALANAQQVQIHQIGEDGQVQVGHLHIAQVPQGEQVQITQDSEGNLQIHHVGQDGQLLEATRIPCLLAPSVFKASSGQVLQGAQLIAVASSDPAAAGVDGSPLQGSDIQVQYVQLAPVSDHTAGAQTAEALQPTLQPEMQLEHGAIQIQ
# partner: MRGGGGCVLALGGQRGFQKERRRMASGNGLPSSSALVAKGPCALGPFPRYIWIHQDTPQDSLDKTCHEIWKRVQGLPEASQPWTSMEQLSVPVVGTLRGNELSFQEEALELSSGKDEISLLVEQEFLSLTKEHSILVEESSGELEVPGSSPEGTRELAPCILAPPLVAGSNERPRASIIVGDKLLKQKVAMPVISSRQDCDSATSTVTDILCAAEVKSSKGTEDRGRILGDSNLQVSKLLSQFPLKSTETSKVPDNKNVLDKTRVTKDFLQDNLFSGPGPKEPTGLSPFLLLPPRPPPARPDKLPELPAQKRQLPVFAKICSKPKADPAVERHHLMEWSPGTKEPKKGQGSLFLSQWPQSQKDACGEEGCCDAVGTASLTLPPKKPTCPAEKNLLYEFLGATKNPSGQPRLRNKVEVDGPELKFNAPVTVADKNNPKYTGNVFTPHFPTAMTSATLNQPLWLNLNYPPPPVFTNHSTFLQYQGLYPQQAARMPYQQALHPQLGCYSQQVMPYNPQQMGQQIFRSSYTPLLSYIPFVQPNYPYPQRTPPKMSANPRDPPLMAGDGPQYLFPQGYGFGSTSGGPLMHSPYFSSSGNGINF
# B4: Filamin-binding LIM protein 1 (Homo sapiens), Q8WUP2 (parent)
# chain: MASKPEKRVASSVFITLAPPRRDVAVAEEVRQAVCEARRGRPWEAPAPMKTPEAGLAGRPSPWTTPGRAAATVPAAPMQLFNGGCPPPPPVLDGEDVLPDLDLLPPPPPPPPVLLPSEEEAPAPMGASLIADLEQLHLSPPPPPPQAPAEGPSVQPGPLRPMEEELPPPPAEPVEKGASTDICAFCHKTVSPRELAVEAMKRQYHAQCFTCRTCRRQLAGQSFYQKDGRPLCEPCYQDTLERCGKCGEVVRDHIIRALGQAFHPSCFTCVTCARCIGDESFALGSQNEVYCLDDFYRKFAPVCSICENPIIPRDGKDAFKIECMGRNFHENCYRCEDCRILLSVEPTDQGCYPLNNHLFCKPCHVKRSAAGCC
# partner: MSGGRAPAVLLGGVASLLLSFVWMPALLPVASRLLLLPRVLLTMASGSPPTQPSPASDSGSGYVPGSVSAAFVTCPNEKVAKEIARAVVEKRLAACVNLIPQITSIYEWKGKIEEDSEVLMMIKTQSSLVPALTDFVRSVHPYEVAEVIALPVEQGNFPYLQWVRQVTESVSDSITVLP
# B5: U6 snRNA-associated Sm-like protein LSm7 (Homo sapiens), Q9UK45 (parent)
# chain: MADKEKKKKESILDLSKYIDKTIRVKFQGGREASGILKGFDPLLNLVLDGTIEYMRDPDDQYKLTEDTRQLGLVVCRGTSVVLICPQDGMEAIPNPFIQQQDA
# partner: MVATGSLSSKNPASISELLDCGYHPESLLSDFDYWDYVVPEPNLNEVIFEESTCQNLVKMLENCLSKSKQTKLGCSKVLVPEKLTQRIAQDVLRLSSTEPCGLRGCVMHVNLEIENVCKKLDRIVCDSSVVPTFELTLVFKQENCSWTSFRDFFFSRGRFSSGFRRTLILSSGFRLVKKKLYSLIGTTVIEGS
# Variants of: B1
# Details: with nmi_human NMI
row,effect of a mutation on the interaction,Variant
1,with no effect,S7G

# Variants of: B2
# Details: with gnl3l_human GNL3L
row,effect of a mutation on the interaction,Variant
1,disrupting interaction strength,L12H

# Variants of: B3
# Details: with ca094_human C1orf94, Q6P1W5
row,effect of a mutation on the interaction,Variant
1,with no effect,P348S

# Variants of: B4
# Details: with cuta_human CUTA
row,effect of a mutation on the interaction,Variant
1,disrupting interaction strength,Y204C

# Variants of: B5
# Details: with ddt4l_human DDIT4L
row,effect of a mutation on the interaction,Variant
1,with no effect,G78A
